We go through one molecule from paper PMC5771957.

The assay deals with T1, CCDC103 (wildtype), N-terminal His10 tagged (H. sapiens), Q8IW40.
T1 chain: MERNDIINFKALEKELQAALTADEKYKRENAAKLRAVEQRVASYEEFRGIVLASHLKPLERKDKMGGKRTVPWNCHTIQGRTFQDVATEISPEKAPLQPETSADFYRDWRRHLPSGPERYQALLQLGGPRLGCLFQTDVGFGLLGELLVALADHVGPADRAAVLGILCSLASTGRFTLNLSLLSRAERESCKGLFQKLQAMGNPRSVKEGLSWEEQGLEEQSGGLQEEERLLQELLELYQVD
Briefly: SEC. Conditions: remark: other sources report otherwise.

B1: CCDC103 (wildtype), N-terminal His10 tagged, Q8IW40 1-242 (natural protein)
chain: MERNDIINFKALEKELQAALTADEKYKRENAAKLRAVEQRVASYEEFRGIVLASHLKPLERKDKMGGKRTVPWNCHTIQGRTFQDVATEISPEKAPLQPETSADFYRDWRRHLPSGPERYQALLQLGGPRLGCLFQTDVGFGLLGELLVALADHVGPADRAAVLGILCSLASTGRFTLNLSLLSRAERESCKGLFQKLQAMGNPRSVKEGLSWEEQGLEEQSGGLQEEERLLQELLELYQVD
Regarding B1, the stoichiometry N (in general, the number of molecules, sites or subunits per partner or assembly) turned out to be 2.
